Substitutions are numbered along the chain they refer to. In names and notes the source's numbering stands. Read-outs that look alike come from different tables or passages of the source.
Key:
[1] = target: native rabbit IFIT1B (native rIFIT1B) (rabbit (endogenous in rabbit reticulocyte lysate)); assay: native gel or EMSA
[2] = target: rabbit IFIT1B (rIFIT1B), recombinant (rabbit); assay: native gel or EMSA
native gel or EMSA [3] = target: the molecule itself; assay: native gel or EMSA
hIFIT3 = target: T1, hIFIT3 (Homo sapiens, UniProt O14879 1-490); assay: EMSA
T1 sequence: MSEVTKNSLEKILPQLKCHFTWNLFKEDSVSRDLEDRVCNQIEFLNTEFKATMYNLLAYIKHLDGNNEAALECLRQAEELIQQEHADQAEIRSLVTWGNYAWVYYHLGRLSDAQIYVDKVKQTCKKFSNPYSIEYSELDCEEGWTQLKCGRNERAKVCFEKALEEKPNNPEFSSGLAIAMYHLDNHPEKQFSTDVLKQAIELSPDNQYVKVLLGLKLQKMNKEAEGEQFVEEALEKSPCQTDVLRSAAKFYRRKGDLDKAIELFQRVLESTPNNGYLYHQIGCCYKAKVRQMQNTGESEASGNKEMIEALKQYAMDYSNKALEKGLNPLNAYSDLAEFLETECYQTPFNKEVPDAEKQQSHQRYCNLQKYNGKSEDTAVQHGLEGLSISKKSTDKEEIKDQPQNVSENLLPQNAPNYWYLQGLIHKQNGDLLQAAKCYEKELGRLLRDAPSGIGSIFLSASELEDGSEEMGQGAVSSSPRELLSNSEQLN

hIFIT5 = target: T2, hIFIT5 (Homo sapiens, UniProt Q13325 1-482); assay: EMSA
T2 sequence: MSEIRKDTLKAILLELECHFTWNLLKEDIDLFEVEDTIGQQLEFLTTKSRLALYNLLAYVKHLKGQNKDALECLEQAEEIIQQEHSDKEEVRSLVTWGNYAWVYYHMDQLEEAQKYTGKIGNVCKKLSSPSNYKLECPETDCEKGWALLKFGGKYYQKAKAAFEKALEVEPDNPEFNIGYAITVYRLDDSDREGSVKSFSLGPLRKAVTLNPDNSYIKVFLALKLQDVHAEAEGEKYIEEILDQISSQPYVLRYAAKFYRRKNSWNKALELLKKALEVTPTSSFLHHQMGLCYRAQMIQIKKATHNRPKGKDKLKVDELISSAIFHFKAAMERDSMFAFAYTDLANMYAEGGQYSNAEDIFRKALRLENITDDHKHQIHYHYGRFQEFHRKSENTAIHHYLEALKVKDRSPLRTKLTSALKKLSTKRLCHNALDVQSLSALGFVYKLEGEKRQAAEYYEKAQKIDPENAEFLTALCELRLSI

hIFIT2 = target: T3, hIFIT2 (Homo sapiens, UniProt P09913 1-472); assay: EMSA
T3 sequence: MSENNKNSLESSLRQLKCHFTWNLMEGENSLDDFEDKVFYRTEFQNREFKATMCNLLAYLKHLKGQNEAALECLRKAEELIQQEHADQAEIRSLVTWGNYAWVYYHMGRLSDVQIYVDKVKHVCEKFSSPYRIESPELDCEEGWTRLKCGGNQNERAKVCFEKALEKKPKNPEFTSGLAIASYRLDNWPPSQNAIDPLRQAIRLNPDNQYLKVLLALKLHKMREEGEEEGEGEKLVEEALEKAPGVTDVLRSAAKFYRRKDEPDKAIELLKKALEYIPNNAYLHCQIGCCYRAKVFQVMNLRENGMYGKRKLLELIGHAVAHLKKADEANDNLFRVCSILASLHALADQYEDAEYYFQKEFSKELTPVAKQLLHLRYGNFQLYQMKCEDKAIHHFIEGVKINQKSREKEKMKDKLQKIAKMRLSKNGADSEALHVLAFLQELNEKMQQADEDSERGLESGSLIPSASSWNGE

hIFIT1 [4] = target: T4, hIFIT1 (Homo sapiens, UniProt P09914 1-478); assay: EMSA
T4 sequence: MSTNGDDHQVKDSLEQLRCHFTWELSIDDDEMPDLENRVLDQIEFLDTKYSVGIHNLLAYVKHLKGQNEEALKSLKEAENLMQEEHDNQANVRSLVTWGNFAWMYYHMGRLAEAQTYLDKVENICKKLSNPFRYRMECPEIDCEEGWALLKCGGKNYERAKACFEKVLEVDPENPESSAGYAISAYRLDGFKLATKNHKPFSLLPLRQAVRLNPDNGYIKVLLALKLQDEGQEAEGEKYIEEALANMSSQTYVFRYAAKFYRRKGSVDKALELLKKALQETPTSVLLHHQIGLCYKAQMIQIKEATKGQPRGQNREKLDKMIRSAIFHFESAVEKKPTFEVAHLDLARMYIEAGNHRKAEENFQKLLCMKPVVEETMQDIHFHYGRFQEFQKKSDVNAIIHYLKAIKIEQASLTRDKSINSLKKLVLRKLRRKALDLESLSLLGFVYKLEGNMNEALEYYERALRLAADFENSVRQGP

hIFIT1 [5] = target: T4, hIFIT1; assay: EMSA; remark: listed apart in the source
native gel or EMSA [6] = target: the molecule itself; assay: native gel or EMSA; remark: listed apart in the source

native rabbit IFIT1B (native rIFIT1B) (natural protein)
stoichiometry N [1]: 2

rabbit IFIT1B (rIFIT1B), recombinant (natural protein)
stoichiometry N [2]: 2

B1: human IFIT3 (hIFIT3), recombinant (natural protein, UniProt O14879 1-490, looked up)
chain: T1 sequence
binding result (native gel or EMSA [3]): binds

B2: cap0 62-nt β-globin(G) RNA (ssRNA)
RNA: GACACUUGCUUUUGACACAACUGUGUUUACUUGCAAUCCCCCAAAACAGACAGAAUGGUGCA
modifications: m7Gppp cap0
binding result (hIFIT3): no binding | binding result (hIFIT5): no binding | binding result (hIFIT2): no binding | binding result (hIFIT1 [4]): binds

B3: cap1 62-nt β-globin(G) RNA (ssRNA)
RNA: B2 RNA
modifications: m7GpppGm cap1
binding result (hIFIT3): no binding | binding result (hIFIT5): no binding | binding result (hIFIT1 [5]): no binding | binding result (hIFIT2): no binding

B4: human IFIT1 (hIFIT1), recombinant wild type (natural protein, UniProt P09914 1-478, looked up)
chain: T4 sequence
binding result (native gel or EMSA [6]): binds

B5: hIFIT1 F45A (natural protein, human, UniProt P09914 1-478, looked up)
chain: T4 sequence with F45A
binding result (native gel or EMSA [3]): binds

B6: hIFIT1 Y50A (natural protein, human, UniProt P09914 1-478, looked up)
chain: T4 sequence with Y50A
binding result (native gel or EMSA [3]): binds

B7: hIFIT1 W147L (natural protein, human, UniProt P09914 1-478, looked up)
chain: T4 sequence with W147L
binding result (native gel or EMSA [3]): binds

B8: hIFIT1 Y218A (natural protein, human, UniProt P09914 1-478, looked up)
chain: T4 sequence with Y218A
binding result (native gel or EMSA [3]): binds

B9: hIFIT1 F45A/Y50A (natural protein, human, UniProt P09914 1-478, looked up)
chain: T4 sequence with F45A, Y50A
binding result (native gel or EMSA [3]): binds

B10: human IFIT2 (hIFIT2), recombinant (natural protein, UniProt P09913 1-472, looked up)
chain: T3 sequence
stoichiometry N (native gel or EMSA [3]): 2
